B1: CPEB3 Ribozyme (parent)
chain: UAACAGGGGGCCACAGCAGAAGCGUUCACGUCGCAGCCCCUGUCAGAUUCUGGUGAAUCUGCGAAUUCUGCUGUAUAUCUC

The variants in the series derive from B1. In words: self-cleavage, relative activity (ratio to wild type); higher = more cleavage; in vitro, sequencing. Summed up:
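Relative activity compares each variant's cleaved/total read fraction with that of the unmutated ribozyme. To get these fractions, barcoded CPEB3 ribozyme libraries from rounds of error-prone PCR were transcribed with T7 RNA polymerase for 5 hours at 37°C and then given 15 min of DNase I treatment before EDTA was added. The RNAs were reverse transcribed with template switching and sequenced on Illumina, and DNA sequencing linked barcodes to variants. A minimum of 5 reads applied, and three batches were averaged.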
For UAACAGGAGGCCACAGCAGAAGCGUUCACGUCGCAGCCCUUGUCAGAUUCUGGUGAAUCUGCGAAUUCUGCUGUAUAUCUC, the self-cleavage was found to be 0.14.

For UAACAGGAGGCCACAGCAGAAGCGUUCACGUAGCAGCCCCUGUCAGAUUCUGGUGAAUCUGCGAAUUCUGCUGUAUAUCUC, the self-cleavage came out at 0.2.

For the variant UAACAGGAGGCCACAGCAGAAGCGAUCACGUCGCAGCCCCUGUCAGAUUCUGGUGAAUCUGCGAAUUCUGCUGUAUAUCUC, the self-cleavage is 0.05. With UAACAGGAGGCCACAGCAGAAGCGCUCACGUCGCAGCCCCUGUCAGAUUCUGGUGAAUCUGCGAAUUCUGCUGUAUAUCUC the figure was 0.26; with UAACAGGAGGCCACAGCAGAAGCGUUCACGUCGCAGCCACUGUCAGAUUCUGGUGAAUCUGCGAAUUCUGCUGUAUAUCUC, 0.21; with UAACAGGAGGCCACAGCAGAAGCGUUCACGUCGCAGCCGCUGUCAGAUUCUGGUGAAUCUGCGAAUUCUGCUGUAUAUCUC, 0.06. Turning to UAACAGGAGGCCAUAGCAGAAGCGUUCACGUCGCAGCCCCUGUCAGAUUCUGGUGAAUCUGCGAAUUCUGCUGUAUAUCUC, the self-cleavage was 0.08. As to UAACAGGAGGCCAGAGCAGAAGCGUUCACGUCGCAGCCCCUGUCAGAUUCUGGUGAAUCUGCGAAUUCUGCUGUAUAUCUC, the self-cleavage came to 0.38. Take UAACAGGAGGCCACAGCAGAAGCGUCCACGUCGCAGCCCCUGUCAGAUUCUGGUGAAUCUGCGAAUUCUGCUGUAUAUCUC: the self-cleavage stood at 0.13.

As to UAACAGGAGGCCACAGCAGAAGCGUACACGUCGCAGCCCCUGUCAGAUUCUGGUGAAUCUGCGAAUUCUGCUGUAUAUCUC, the self-cleavage came out at 0.19. The figure for UAACAGGAGGCCACAGCAGAAGCGUUCACGUCGCAGCCCCUGUCAGAUUCUGGUGAAUCUGCGAAUUCUGCUGUGUAUCUC is 0.21; for UAACAGGAGGCCACAGCAGAAGCGUUCACGUCGCAGCCCCUGUCAGAUUCUGGUGAAUCUGCGAAUUCUGCUGUUUAUCUC it is 0.24.

Regarding UAACAGGAGGCCACAGCAGAAGCGUUCACGUCGCAGCCCCUGUCAGAUUCUGGUGAAUCUGCGAAUUCUGAUGUAUAUCUC, the self-cleavage amounted to 0.17.

Regarding UAACAGGAGGCCACAGCAGAAGCGUUCACGUCGCAGCCCCUGUCAGAUUCUGGUGAAUCUGCGAAUUCUGUUGUAUAUCUC, the self-cleavage came out at 0.21. UAACAGGAGGCCACAGCAGAAGCGUUCACGUCGCAGCCCCCGUCAGAUUCUGGUGAAUCUGCGAAUUCUGCUGUAUAUCUC: the self-cleavage was 0.32.

Consider UAACAGGAGGCCACAGCAGAAGCGUUCACGUCGCAGCCCCAGUCAGAUUCUGGUGAAUCUGCGAAUUCUGCUGUAUAUCUC, for which the self-cleavage came to 0.07. For UAACAGGAGGCCACAGCAGAAGCGUUCACGUCGCAGCCCCUGUCAGAUUCUGGUGAAUCUGCGAAUUCUGCUGUAUCUCUC, the self-cleavage amounted to 0.09. In the case of UAACAGGAGGCCACAGCAGAAGCGUUCACGUCGCAGCCCCUGUCAGAUUCUGGUGAAUCUGCGAAUUCUGCUGUAUUUCUC, the self-cleavage is 0.18. As for UAACAGGAGGCCACAGCAGAAGCGUUCACGUCGCAGCCCCUGUCAGAUUCUGGUGAAUCUGCGAAUUCUGCUGUAUGUCUC, the self-cleavage was determined as 0.23. With UAACAGGAGGCCACAGCAGAAGCGUUCACGUCUCAGCCCCUGUCAGAUUCUGGUGAAUCUGCGAAUUCUGCUGUAUAUCUC the figure was 0.07; with UAACAGGAGGCCACAGUAGAAGCGUUCACGUCGCAGCCCCUGUCAGAUUCUGGUGAAUCUGCGAAUUCUGCUGUAUAUCUC, 0.25; with UAACAGGAGGCCACAGCAGAAGCGUUUACGUCGCAGCCCCUGUCAGAUUCUGGUGAAUCUGCGAAUUCUGCUGUAUAUCUC, 0.08. Take UAACAGGAGGCCACAGCAGAAGCGUUCACGUCGCAGCCCCUGUCAGAUUCUGGUGAAUCUGCGUAUUCUGCUGUAUAUCUC: the self-cleavage turned out to be 0.27. For UAACAGGAGGCCACAGCAGAAGCGUUCACGUCGCAGCCCCUGUCAGAUUCUGGUGAAUCUGCGGAUUCUGCUGUAUAUCUC, the self-cleavage is 0.22. With UAACAGGAGGCCACAGCAGAAGCGUUCACGUCGCAGCCCCUGUUAGAUUCUGGUGAAUCUGCGAAUUCUGCUGUAUAUCUC the figure was 0.08. Take UAACAGGAGGCCACAGCAGAAGCGUUCACGUCGCAGCCCCUGUAAGAUUCUGGUGAAUCUGCGAAUUCUGCUGUAUAUCUC: the self-cleavage was found to be 0.26.

Take UAACAGGAGGCCACAGCAGAAGCGUUCACGUCGCAGCCCCUGUCAGAUUCUGGUAAAUCUGCGAAUUCUGCUGUAUAUCUC: the self-cleavage is 0.06.

As for UAACAGGAGGCCACAGCAGAAGUGUUCACGUCGCAGCCCCUGUCAGAUUCUGGUGAAUCUGCGAAUUCUGCUGUAUAUCUC, the self-cleavage turned out to be 0.07. For the variant UAACAGGAGGCCACAGCAGAAGAGUUCACGUCGCAGCCCCUGUCAGAUUCUGGUGAAUCUGCGAAUUCUGCUGUAUAUCUC, the self-cleavage was determined as 0.06.

For the variant UAACAGGAGGCCACAGCAGAAGCGUUCACGUCGCAGCCCCUGUCAGAUUCUGGUGAAUCUGCGAAUUAUGCUGUAUAUCUC, the self-cleavage was 0.2. With UAACAGGAGGCCACAGCAGAAGCGUUCACGUCGCAGCCCCUGUCAGAUUUUGGUGAAUCUGCGAAUUCUGCUGUAUAUCUC the figure was 0.12; with UAACAGGAGGCCACAGCAGAAGCAUUCACGUCGCAGCCCCUGUCAGAUUCUGGUGAAUCUGCGAAUUCUGCUGUAUAUCUC, 0.08; with UAACAGGAGGCCACAGCAGAAGCGUUCACGUCGCAGCCCCUGUCAGAUUCUGGUGAGUCUGCGAAUUCUGCUGUAUAUCUC, 0.26. UAACAGGAGGCCACAGCAGAAGCGUUCACGUCGCAGCCCCUGUCAGAUUCUGGUGAUUCUGCGAAUUCUGCUGUAUAUCUC: the self-cleavage was found to be 0.11.

(Values after the RNAGym collection of RNA variant scans (doi:10.1093/nar/gkz1192).)
